Laboratory results as given in patent publication US20230340151A1 (Pfizer, published 2023).

Assays:
Test in all cases: peptide DELFIA ELISA;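 further: epitope mapping using overlapping 20-mer GUCY2C peptides covering residues 1-440, extracellular into transmembrane domain, coated at 20 µg/ml as target antigen and probed with antibodies or GUCY2C-CD3 bispecifics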
GUCY2C_ECD Peptide 53 = target: T1, GUCY2C_ECD Peptide 53 (human)
T1 peptide: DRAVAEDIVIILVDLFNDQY
Protocol: (§1) Arrays were reconstituted with acetonitrile to 100 μg/ml and were then further diluted to 20 μg/ml with sodium carbonate/bicarbonate buffer. Purified antibodies or GUCY2c-CD3 bispecifics were then tested by Delfia ELISA for binding to the different peptides using Delfia ELISA methods previously discussed, with diluted peptides used as the target antigen.

GUCY2C_ECD Peptide 39 = target: T2, GUCY2C_ECD Peptide 39 (human)
T2 peptide: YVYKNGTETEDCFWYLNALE
Protocol: as §1

GUCY2C_ECD Peptide 22 = target: T3, GUCY2C_ECD Peptide 22 (human)
T3 peptide: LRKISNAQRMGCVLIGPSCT
Protocol: as §1

GUCY2C_ECD Peptide 70 = target: T4, GUCY2C_ECD Peptide 70 (human)
T4 peptide: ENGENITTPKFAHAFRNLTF
Protocol: as §1

GUCY2C_ECD Peptide 16 = target: T5, GUCY2C_ECD Peptide 16 (human)
T5 peptide: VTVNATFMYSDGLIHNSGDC
Protocol: as §1

GUCY2C_ECD Peptide 29 = target: T6, GUCY2C_ECD Peptide 29 (human)
T6 peptide: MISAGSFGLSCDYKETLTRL
Protocol: as §1

GUCY2C_ECD Peptide 7 = target: T7, GUCY2C_ECD Peptide 7 (human)
T7 peptide: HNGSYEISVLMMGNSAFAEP
Protocol: as §1

GUCY2C_ECD Peptide 27 = target: T8, GUCY2C_ECD Peptide 27 (human)
T8 peptide: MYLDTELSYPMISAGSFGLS
Protocol: as §1

GUCY2C_ECD Peptide 17 = target: T9, GUCY2C_ECD Peptide 17 (human)
T9 peptide: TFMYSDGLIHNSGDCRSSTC
Protocol: as §1

GUCY2C_ECD Peptide 63 = target: T10, GUCY2C_ECD Peptide 63 (human)
T10 peptide: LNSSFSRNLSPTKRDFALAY
Protocol: as §1

GUCY2C_ECD Peptide 45 = target: T11, GUCY2C_ECD Peptide 45 (human)
T11 peptide: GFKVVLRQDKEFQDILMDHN
Protocol: as §1

GUCY2C_ECD Peptide 47 = target: T12, GUCY2C_ECD Peptide 47 (human)
T12 peptide: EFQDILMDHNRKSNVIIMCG
Protocol: as §1

GUCY2C_ECD Peptide 42 = target: T13, GUCY2C_ECD Peptide 42 (human)
T13 peptide: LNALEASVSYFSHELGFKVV
Protocol: as §1

GUCY2C_ECD Peptide 68 = target: T14, GUCY2C_ECD Peptide 68 (human)
T14 peptide: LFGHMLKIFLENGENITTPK
Protocol: as §1

GUCY2C_ECD Peptide 44 = target: T15, GUCY2C_ECD Peptide 44 (human)
T15 peptide: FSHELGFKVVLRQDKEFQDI
Protocol: as §1

GUCY2C_ECD Peptide 32 = target: T16, GUCY2C_ECD Peptide 32 (human)
T16 peptide: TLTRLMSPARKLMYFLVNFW
Protocol: as §1

GUCY2C_ECD Peptide 52 = target: T17, GUCY2C_ECD Peptide 52 (human)
T17 peptide: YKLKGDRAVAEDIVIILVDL
Protocol: as §1

GUCY2C_ECD Peptide 77 = target: T18, GUCY2C_ECD Peptide 77 (human)
T18 peptide: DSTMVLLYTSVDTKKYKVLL
Protocol: as §1

GUCY2C_ECD Peptide 36 = target: T19, GUCY2C_ECD Peptide 36 (human)
T19 peptide: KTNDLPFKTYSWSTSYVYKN
Protocol: as §1

GUCY2C_ECD Peptide 14 = target: T20, GUCY2C_ECD Peptide 14 (human)
T20 peptide: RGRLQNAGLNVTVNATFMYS
Protocol: as §1

GUCY2C_ECD Peptide 83 = target: T21, GUCY2C_ECD Peptide 83 (human)
T21 peptide: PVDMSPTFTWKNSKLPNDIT
Protocol: as §1

GUCY2C_ECD Peptide 43 = target: T22, GUCY2C_ECD Peptide 43 (human)
T22 peptide: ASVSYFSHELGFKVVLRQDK
Protocol: as §1

GUCY2C_ECD Peptide 79 = target: T23, GUCY2C_ECD Peptide 79 (human)
T23 peptide: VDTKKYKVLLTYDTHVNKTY
Protocol: as §1

GUCY2C_ECD Peptide 75 = target: T24, GUCY2C_ECD Peptide 75 (human)
T24 peptide: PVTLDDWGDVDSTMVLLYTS
Protocol: as §1

GUCY2C_ECD Peptide 58 = target: T25, GUCY2C_ECD Peptide 58 (human)
T25 peptide: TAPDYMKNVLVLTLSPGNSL
Protocol: as §1

GUCY2C_ECD Peptide 57 = target: T26, GUCY2C_ECD Peptide 57 (human)
T26 peptide: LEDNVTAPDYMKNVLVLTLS
Protocol: as §1

GUCY2C_ECD Peptide 86 = target: T27, GUCY2C_ECD Peptide 86 (human)
T27 peptide: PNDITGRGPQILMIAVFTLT
Protocol: as §1

GUCY2C_ECD Peptide 62 = target: T28, GUCY2C_ECD Peptide 62 (human)
T28 peptide: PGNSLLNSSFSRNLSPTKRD
Protocol: as §1

GUCY2C_ECD Peptide 35 = target: T29, GUCY2C_ECD Peptide 35 (human)
T29 peptide: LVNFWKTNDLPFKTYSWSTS
Protocol: as §1

GUCY2C_ECD Peptide 65 = target: T30, GUCY2C_ECD Peptide 65 (human)
T30 peptide: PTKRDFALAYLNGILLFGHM
Protocol: as §1

GUCY2C_ECD Peptide 40 = target: T31, GUCY2C_ECD Peptide 40 (human)
T31 peptide: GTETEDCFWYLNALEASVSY
Protocol: as §1

GUCY2C_ECD Peptide 72 = target: T32, GUCY2C_ECD Peptide 72 (human)
T32 peptide: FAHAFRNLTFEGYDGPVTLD
Protocol: as §1

GUCY2C_ECD Peptide 11 = target: T33, GUCY2C_ECD Peptide 11 (human)
T33 peptide: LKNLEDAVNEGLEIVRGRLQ
Protocol: as §1

GUCY2C_ECD Peptide 25 = target: T34, GUCY2C_ECD Peptide 25 (human)
T34 peptide: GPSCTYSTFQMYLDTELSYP
Protocol: as §1

GUCY2C_ECD Peptide 13 = target: T35, GUCY2C_ECD Peptide 13 (human)
T35 peptide: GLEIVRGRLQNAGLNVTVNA
Protocol: as §1

GUCY2C_ECD Peptide 46 = target: T36, GUCY2C_ECD Peptide 46 (human)
T36 peptide: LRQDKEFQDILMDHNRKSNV
Protocol: as §1

B1: GUCY2C-1608 (bispecific antibody)
chain 1: DIQLTQSPSSLSASVGDRVTITCRASESVDYYGSSLLQWYQQKPGKAPKLLIYAASKLASGVPSRFSGSGSGTDFTLTISSLQPEDFATYYCQQTRKAYTFGQGTKLEIKGGGSGGGGEVQLVESGGGLVQPGGSLRLSCAASGFTFSDYYMTWVRQAPGKGLEWVAFIRNQARGYTSDHNPSVKGRFTISRDNAKNSLYLQMNSLRAEDTAVYYCARDRPSYYVLDYWGQGTTVTVSSGCPPCPAPEAAGAPSVFLFPPKPKDTLMISRTPEVTCVVVDVSHEDPEVKFNWYVDGVEVHNAKTKPREEQYNSTYRVVSVLTVLHQDWLNGKEYKCKVSNKALPAPIEKTISKAKGQPREPQVCTLPPSREEMTKNQVSLWCLVKGFYPSDIAVEWESNGQPENNYKTTPPVLDSDGSFFLYSKLTVDKSRWQQGNVFSCSVMHEALHNHYTQKSLSLSPG
chain 2: DIQMTQSPSSLSASVGDRVTITCTSSQSLFNVRSQKNYLAWYQQKPGKAPKLLIYWASTRESGVPSRFSGSGSGTDFTLTISSLQPEDFATYYCKQSYDLFTFGGGTKVEIKGGGGSGGGGEVQLVESGGGLVQPGGSLRLSCAASGFTFSSYWMHWVRQAPGKGLEWIGEIKPSNELTNVHEKFKDRFTISVDKAKNSAYLQMNSLRAEDTAVYYCTRTITTTEGYWFFDVWGQGTLVTVSSGCPPCPAPEAAGAPSVFLFPPKPKDTLMISRTPEVTCVVVDVSHEDPEVKFNWYVDGVEVHNAKTKPREEQYNSTYRVVSVLTVLHQDWLNGKEYKCKVSNKALPAPIEKTISKAKGQPREPQVYTLPPCREEMTKNQVSLSCAVKGFYPSDIAVEWESNGQPENNYKTTPPVLDSDGSFFLVSKLTVDKSRWQQGNVFSCSVMHEALHNHYTQKSLSLSPG
notes: also called GUCY2c CD3 bispecific
DELFIA TRF (GUCY2C_ECD Peptide 53): 87.8 | DELFIA TRF (GUCY2C_ECD Peptide 39): 86.5 | DELFIA TRF (GUCY2C_ECD Peptide 22): 93.5 | DELFIA TRF (GUCY2C_ECD Peptide 70): 91.8 | DELFIA TRF (GUCY2C_ECD Peptide 16): 105 | DELFIA TRF (GUCY2C_ECD Peptide 29): 101 | DELFIA TRF (GUCY2C_ECD Peptide 7): 136 | DELFIA TRF (GUCY2C_ECD Peptide 27): 105 | DELFIA TRF (GUCY2C_ECD Peptide 17): 112 | DELFIA TRF (GUCY2C_ECD Peptide 63): 110 | DELFIA TRF (GUCY2C_ECD Peptide 45): 108 | DELFIA TRF (GUCY2C_ECD Peptide 47): 104 | DELFIA TRF (GUCY2C_ECD Peptide 42): 96.5 | DELFIA TRF (GUCY2C_ECD Peptide 68): 73.5 | DELFIA TRF (GUCY2C_ECD Peptide 44): 90.5 | DELFIA TRF (GUCY2C_ECD Peptide 32): 83.2 | DELFIA TRF (GUCY2C_ECD Peptide 52): 104 | DELFIA TRF (GUCY2C_ECD Peptide 77): 98.2 | DELFIA TRF (GUCY2C_ECD Peptide 36): 112 | DELFIA TRF (GUCY2C_ECD Peptide 14): 97 | DELFIA TRF (GUCY2C_ECD Peptide 83): 85.8 | DELFIA TRF (GUCY2C_ECD Peptide 43): 104 | DELFIA TRF (GUCY2C_ECD Peptide 79): 130 | DELFIA TRF (GUCY2C_ECD Peptide 75): 88.2 | DELFIA TRF (GUCY2C_ECD Peptide 58): 98.5 | DELFIA TRF (GUCY2C_ECD Peptide 57): 99.8 | DELFIA TRF (GUCY2C_ECD Peptide 86): 110 | DELFIA TRF (GUCY2C_ECD Peptide 62): 91.2 | DELFIA TRF (GUCY2C_ECD Peptide 35): 108 | DELFIA TRF (GUCY2C_ECD Peptide 65): 103 | DELFIA TRF (GUCY2C_ECD Peptide 40): 85.2 | DELFIA TRF (GUCY2C_ECD Peptide 72): 116 | DELFIA TRF (GUCY2C_ECD Peptide 11): 101 | DELFIA TRF (GUCY2C_ECD Peptide 25): 131 | DELFIA TRF (GUCY2C_ECD Peptide 13): 102 | DELFIA TRF (GUCY2C_ECD Peptide 46): 106
